± gives the standard deviation of the averaged measurements.
System: Saccharomyces cerevisiae
Test: protein stability index of tFT-peptide fusion (C-terminal peptide) (PSI (0-1 scale)); higher = more stable (slower turnover)
Conditions: temperature: 30 C
Procedure: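 MPS profiling in S. cerevisiae of the yeast C-terminome library: the last 12 aa of each annotated ORF are fused to the C-terminus of a sfGFP-mCherry timer, after a GGGS linker. Cells are FACS-sorted into 8 mCherry/sfGFP bins and deep-sequenced. PSI runs from 0 (unstable) to 1 (stable); wild type and das1Δ backgrounds, two technical replicates each.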

[1] = genetic background: das1 deletion

Sequence	protein stability index [1]	protein stability index (genetic background: wild type)
GQHTKTTGRRRA [RPS18A C-terminal 12 aa]	0.6995 ± 0.0039	0.686 ± 0.032
PFPLPSTERVIF [ADY2 C-terminal 12 aa]	0.723 ± 0.02	0.73 ± 0.023
QARKSKSVSFYA [RPT5 C-terminal 12 aa]	0.693 ± 0.016	0.692 ± 0.027
FRALAELYNLVL [GAS5 C-terminal 12 aa]	0.701 ± 0.02	0.681 ± 0.013
CENANYRGAEVP [YIL175W C-terminal 12 aa]	0.692 ± 0.017	0.689 ± 0.015
PWFAPIREQIEK [CKA1 C-terminal 12 aa]	0.722 ± 0.011	0.7489 ± 0.0034
AAEAKEHMQEAN [TIF34 C-terminal 12 aa]	0.732 ± 0.062	0.69 ± 0.059
KKPFDKKPKFNI [YKU70 C-terminal 12 aa]	0.727 ± 0.024	0.686 ± 0.017
LSNMLNQFILNL [YLR202C C-terminal 12 aa]	0.754 ± 0.058	0.74991 ± 6.5e-05
ESRLFISDGAVF [MON1 C-terminal 12 aa]	0.696 ± 0.0082	0.713 ± 0.041
VDKLAGVRVLPV [GOT1 C-terminal 12 aa]	0.67 ± 0.01	0.704 ± 0.019
LGLSLRRGTEIW [MRP8 C-terminal 12 aa]	0.72702 ± 0.00035	0.72218 ± 0.00069
DIEVDHTKSTDP [DPB3 C-terminal 12 aa]	0.6917 ± 0.0038	0.676 ± 0.018
TKKLLRDYFSQF [SMN1 C-terminal 12 aa]	0.712 ± 0.0096	0.188 ± 0.014
PEAEGPTVEEVD [SSA1 C-terminal 12 aa]	0.703 ± 0.02	0.694 ± 0.019
RLDRHFEKKKKV [RDS3 C-terminal 12 aa]	0.704 ± 0.023	0.7 ± 0.021
GKVLFKPSSSIF [YBR064W C-terminal 12 aa]	0.719 ± 0.011	0.695 ± 0.017
VKWKVLCDLGWT [YIL047C-A C-terminal 12 aa]	0.715 ± 0.023	0.708 ± 0.028
VLDEEFRNNNAS [RAD26 C-terminal 12 aa]	0.716 ± 0.0098	0.69 ± 0.038
LEKVLNQIGLKN [YNL011C C-terminal 12 aa]	0.6874 ± 0.0064	0.6425 ± 0.0062
EIGGLLLQSFYN [YPL119C-A C-terminal 12 aa]	0.687 ± 0.039	0.7378 ± 0.0018

Sequence	protein stability index [1]	protein stability index (genetic background: wild type)
CFSCFHLSTHTN [YDR157W C-terminal 12 aa]	0.725 ± 0.018	0.6252 ± 0.005
VESTRETGGCNC [YPT53 C-terminal 12 aa]	0.692 ± 0.027	0.65486 ± 0.00056
QPDDKTKGILDR [ERV41 C-terminal 12 aa]	0.7292 ± 0.0051	0.682 ± 0.03
DGGWGNRGRSNY [DBP2 C-terminal 12 aa]	0.701 ± 0.01	0.667 ± 0.05
SFGIGSKVFSSM [YHR063W-A C-terminal 12 aa]	0.711 ± 0.021	0.695 ± 0.01
KTSSKGNARTLL [FMP49 C-terminal 12 aa]	0.698 ± 0.025	0.709 ± 0.0091
SSLARPSLFSSE [YBL077W C-terminal 12 aa]	0.735 ± 0.026	0.714 ± 0.056
NLKNGVTLESPE [UBP12 C-terminal 12 aa]	0.716 ± 0.01	0.6889 ± 0.0028
ERYTSIESEIVV [APE4 C-terminal 12 aa]	0.6735 ± 0.0063	0.673 ± 0.023
DIPRSNVYGSLI [SCY1 C-terminal 12 aa]	0.7131 ± 0.0063	0.672 ± 0.044
ELWYKSFGPHDE [APC1 C-terminal 12 aa]	0.7 ± 0.027	0.7187 ± 0.0068
VKTKFFPLSSSI [YDR199W C-terminal 12 aa]	0.738 ± 0.02	0.716 ± 0.026
KGGLEGWVKSQL [LYS4 C-terminal 12 aa]	0.808 ± 0.018	0.811 ± 0.074
GQIVIVHYLYDR [YOR218C C-terminal 12 aa]	0.422 ± 0.018	0.445 ± 0.051
RKQAHELRPKSE [SPO7 C-terminal 12 aa]	0.77 ± 0.024	0.79 ± 0.019
RKSHERPDDVSV [SUR7 C-terminal 12 aa]	0.692 ± 0.018	0.69 ± 0.028
EDADNDNDYDHE [SAP155 C-terminal 12 aa]	0.677 ± 0.035	0.682 ± 0.0061
SRKHTTRSGGRW [HOS3 C-terminal 12 aa]	0.695 ± 0.017	0.6554 ± 0.00091
LNWVFSFYSCSE [YIL163C C-terminal 12 aa]	0.6796 ± 0.0049	0.688 ± 0.019
DGYPKDNEDIDP [MAL13 C-terminal 12 aa]	0.70018 ± 0.0004	0.708 ± 0.043
PCTASITSLISF [YDR269C C-terminal 12 aa]	0.709 ± 0.012	0.731 ± 0.03

Sequence	protein stability index [1]	protein stability index (genetic background: wild type)
IAIGFGVGITRE [BUD8 C-terminal 12 aa]	0.688 ± 0.035	0.739 ± 0.022
QDNSEVVDLTSD [NFI1 C-terminal 12 aa]	0.694 ± 0.012	0.6728 ± 0.006
VGITSVGTRGNY [YNL140C C-terminal 12 aa]	0.674 ± 0.015	0.717 ± 0.097
EEGIDPSTYLNN [SUB2 C-terminal 12 aa]	0.709 ± 0.033	0.684 ± 0.014
WLRKWLSTFVHQ [YNL018C C-terminal 12 aa]	0.732 ± 0.042	0.23 ± 0.022
CYQDYNHDHRSH [OSW2 C-terminal 12 aa]	0.7147 ± 0.0055	0.6835 ± 0.0018
PVRMYALKPMPN [TAE1 C-terminal 12 aa]	0.6931 ± 0.0035	0.665 ± 0.04
LRRGEPDNKVNR [SPG4 C-terminal 12 aa]	0.71 ± 0.019	0.708 ± 0.012
ESTGHVDFGQNR [OTU1 C-terminal 12 aa]	0.7 ± 0.012	0.703 ± 0.012
QTDNTSATNQLL [YSP2 C-terminal 12 aa]	0.7 ± 0.0084	0.701 ± 0.029
KAGEMVLKSLRR [SCP160 C-terminal 12 aa]	0.67 ± 0.028	0.783 ± 0.017
KFNLVTQRENSL [YGR025W C-terminal 12 aa]	0.697 ± 0.021	0.695 ± 0.026
REWASNTVKKEK [EMC5 C-terminal 12 aa]	0.698 ± 0.013	0.692 ± 0.024
FKLKDEYLLIDD [SAS2 C-terminal 12 aa]	0.69 ± 0.016	0.666 ± 0.031
QIAGRYVVDTSK [ADH2 C-terminal 12 aa]	0.6869 ± 0.0057	0.6522 ± 0.0027
YNGGGKKLDGFW [YSP3 C-terminal 12 aa]	0.7015 ± 0.0059	0.691 ± 0.025
SFWPHVAGELEY [INM2 C-terminal 12 aa]	0.72 ± 0.014	0.693 ± 0.04
TFELVMRFLGEE [YMC2 C-terminal 12 aa]	0.709 ± 0.0094	0.669 ± 0.0095
ITNATFREIDDA [SEC12 C-terminal 12 aa]	0.692 ± 0.0098	0.671 ± 0.03
MTLDSWQPLTPK [INP53 C-terminal 12 aa]	0.723 ± 0.016	0.712 ± 0.03
TLGLLCLIFGLP [YOR277C C-terminal 12 aa]	0.482 ± 0.0081	0.499 ± 0.018

Sequence	protein stability index [1]	protein stability index (genetic background: wild type)
KAKSRREGTTRT [STU2 C-terminal 12 aa]	0.7121 ± 0.0033	0.694 ± 0.013
CAVGGPEKLKFY [BUD3 C-terminal 12 aa]	0.726 ± 0.018	0.758 ± 0.018
KKKFSFFGKRKK [PAM1 C-terminal 12 aa]	0.684 ± 0.017	0.704 ± 0.048
EEKTKKEKSLLQ [NPP2 C-terminal 12 aa]	0.7035 ± 0.0011	0.726 ± 0.072
INPMPANFAELS [FAL1 C-terminal 12 aa]	0.721 ± 0.017	0.689 ± 0.049
PLRLLIRPVGEL [YOR248W C-terminal 12 aa]	0.679 ± 0.008	0.673 ± 0.042
LHVVSSAYFEIQ [YEL075C C-terminal 12 aa]	0.674 ± 0.041	0.626 ± 0.044
RQYAGCKVNVGK [NUS1 C-terminal 12 aa]	0.707 ± 0.015	0.705 ± 0.051
ELDDILGSDSDF [MPH1 C-terminal 12 aa]	0.711 ± 0.02	0.6837 ± 0.0036
LVEGQTFDADVE [EGD1 C-terminal 12 aa]	0.69111 ± 4.7e-05	0.671 ± 0.033
NIKALNQSKSHM [SPO77 C-terminal 12 aa]	0.684 ± 0.022	0.6701 ± 0.003
AVGIQSSESLLM [YMR175W-A C-terminal 12 aa]	0.688 ± 0.012	0.715 ± 0.031
IIQDNISPRLVV [RRP46 C-terminal 12 aa]	0.661 ± 0.034	0.665 ± 0.017
LKLKRDLLRLKR [CIP1 C-terminal 12 aa]	0.682 ± 0.019	0.651 ± 0.021
FRSTRSNTPNYT [HDA2 C-terminal 12 aa]	0.728 ± 0.018	0.737 ± 0.046
SSVRTLDSNIWR [ISC10 C-terminal 12 aa]	0.7128 ± 0.0013	0.686 ± 0.024
EGRGYQQIHKLS [YHR139C-A C-terminal 12 aa]	0.721 ± 0.018	0.253 ± 0.0035
MFKCARQSEFDK [MTG2 C-terminal 12 aa]	0.6881 ± 0.0066	0.6829 ± 0.0037
AGSRRLDFRFYH [YOL162W C-terminal 12 aa]	0.678 ± 0.064	0.6607 ± 0.0057

Source: the supplement of paper PMC10724198
